Here are results for two molecules from US20140140998A1 (LUDWIG INSTITUTE FOR CANCER RESEARCH, published 2014).

Assay [1] has as its target T1, tumor necrosis factor alpha converting enzyme (TACE), endogenous (human, UniProt P78536 215-824).
T1 construct: whole, on cells; also called ADAM17
In words: co-immunofluorescence (co-localisation) in PC-3U cells.
Protocol: Panel e: PC-3U cells were treated with or without TGFβ for 30 min as indicated. […] Their colocalization is shown by the yellow color, as shown in merged images. The images on the left are enlarged from the areas enclosed in white boxes in the images to the right. DAPI staining was performed to detect cell nuclei (blue).

The target in assay [2] is Presenilin 1 (PS1), endogenous (human, UniProt P49768 1-467). Nature of the assay: co-immunoprecipitation from transfected PC-3U cells.

Where a chain is given by its changes, count along the chain named. Numbers in names are those of the source.

T1 sequence (P78536 215-824): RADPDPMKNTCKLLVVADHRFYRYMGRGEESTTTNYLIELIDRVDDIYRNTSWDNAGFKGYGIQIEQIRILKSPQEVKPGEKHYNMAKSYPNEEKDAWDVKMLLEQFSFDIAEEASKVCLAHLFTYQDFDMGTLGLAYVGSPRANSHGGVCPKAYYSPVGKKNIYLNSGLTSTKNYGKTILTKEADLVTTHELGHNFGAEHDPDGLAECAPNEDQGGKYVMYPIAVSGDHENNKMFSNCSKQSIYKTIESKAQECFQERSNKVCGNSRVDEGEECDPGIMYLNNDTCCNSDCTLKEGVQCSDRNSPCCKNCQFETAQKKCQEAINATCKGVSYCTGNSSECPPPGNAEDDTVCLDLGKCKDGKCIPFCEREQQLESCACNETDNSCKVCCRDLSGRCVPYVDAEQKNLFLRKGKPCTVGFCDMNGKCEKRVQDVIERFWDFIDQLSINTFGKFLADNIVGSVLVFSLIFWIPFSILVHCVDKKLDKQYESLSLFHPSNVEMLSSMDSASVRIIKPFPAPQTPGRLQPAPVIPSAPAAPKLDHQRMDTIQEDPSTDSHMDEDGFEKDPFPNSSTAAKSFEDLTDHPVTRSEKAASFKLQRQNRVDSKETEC

B1: type I receptor of transforming growth factor beta (TβRI), endogenous, full length (receptor)
chain: LQCFCHLCTKDNFTCVTDGLCFVSVTETTDKVIHNSMCIAEIDLIPRDRPFVCAPSSKTGSVTTTYCCNQDHCNKIELPTTVKSSPGLGPVELAAVIAGPVCFVCISLMLMVYICHNRTVIHHRVPNEEDPSLDRPFISEGTTLKDLIYDMTTSGSGSGLPLLVQRTIARTIVLQESIGKGRFGEVWRGKWRGEEVAVKIFSSREERSWFREAEIYQTVMLRHENILGFIAADNKDNGTWTQLWLVSDYHEHGSLFDYLNRYTVTVEGMIKLALSTASGLAHLHMEIVGTQGKPAIAHRDLKSKNILVKKNGTCCIADLGLAVRHDSATDTIDIAPNHRVGTKRYMAPEVLDDSINMKHFESFKRADIYAMGLVFWEIARRCSIGGIHEDYQLPYYDLVPSDPSVEEMRKVVCEQKLRPNIPNRWQSCEALRVMAKIMRECWYANGAARLTALRIKKTLSQLSQQEGIKM
notes: Endogenous receptor of human PC-3U prostate cancer cells, studied in cell lysates, cell fractions and fixed cells; also called TβRI-FL; ALK5
Consider B1, for which, in assay [1], the binding result was “binds”.

B2: HA-tagged caE161A TβRI mutant (HA-ca E161A) (receptor)
chain: B1 chain with E128A, T171D
notes: Expressed by transient transfection in PC-3U cells; also called HA-E161A; E161A mutant; not shown: HA tag fused to the C-terminus
As to B2, the binding result in assay [2] is “no binding”.
